We go through 1 molecule from patent US20140274782A1 (Stanford University, published 2014).

Assay in all cases: ProtoArray, GST-treated control array;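 note: human protein microarray (about 9500 recombinant proteins) incubated overnight with GST alone plus SAM cofactor as the negative control for G9a SET domain methylation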
Assay [1] addresses T1, SMYD5-SMYD family member 5 (SMYD5) (human, UniProt Q6GMV2 1-418).
T1 sequence (looked up): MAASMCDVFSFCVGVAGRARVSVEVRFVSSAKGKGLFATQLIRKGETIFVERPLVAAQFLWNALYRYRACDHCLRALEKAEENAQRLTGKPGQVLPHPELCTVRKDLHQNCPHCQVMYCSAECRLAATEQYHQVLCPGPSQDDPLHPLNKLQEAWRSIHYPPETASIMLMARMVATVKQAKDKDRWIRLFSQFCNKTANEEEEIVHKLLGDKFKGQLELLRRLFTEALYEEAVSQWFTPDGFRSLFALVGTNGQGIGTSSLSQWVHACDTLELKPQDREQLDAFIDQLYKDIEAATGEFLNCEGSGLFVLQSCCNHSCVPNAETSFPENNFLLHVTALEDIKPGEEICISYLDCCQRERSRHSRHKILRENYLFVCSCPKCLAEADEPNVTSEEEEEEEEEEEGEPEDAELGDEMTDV

In assay [2] the target is T2, GGPS1-Geranylgeranyl pyrophosphate synthetase (human, UniProt O95749 1-300).
T2 sequence (looked up): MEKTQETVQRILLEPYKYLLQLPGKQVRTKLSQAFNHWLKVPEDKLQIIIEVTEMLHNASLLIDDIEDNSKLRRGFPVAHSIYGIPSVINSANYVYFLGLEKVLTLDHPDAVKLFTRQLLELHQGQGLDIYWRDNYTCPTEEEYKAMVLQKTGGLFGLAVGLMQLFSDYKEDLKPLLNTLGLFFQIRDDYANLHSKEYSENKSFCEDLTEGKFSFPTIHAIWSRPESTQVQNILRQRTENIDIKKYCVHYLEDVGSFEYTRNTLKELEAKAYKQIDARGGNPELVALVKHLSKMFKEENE

Assay [3] deals with DGKA-diacylglycerol kinase, alpha 80 kDa (DGKA) (human, UniProt P23743 1-735).
Assay [4] addresses T3, CRYZL1-crystallin, zeta (quinone reductase)-like 1 (CRYZL1) (human, UniProt O95825 1-349, limits assumed).
T3 sequence (looked up): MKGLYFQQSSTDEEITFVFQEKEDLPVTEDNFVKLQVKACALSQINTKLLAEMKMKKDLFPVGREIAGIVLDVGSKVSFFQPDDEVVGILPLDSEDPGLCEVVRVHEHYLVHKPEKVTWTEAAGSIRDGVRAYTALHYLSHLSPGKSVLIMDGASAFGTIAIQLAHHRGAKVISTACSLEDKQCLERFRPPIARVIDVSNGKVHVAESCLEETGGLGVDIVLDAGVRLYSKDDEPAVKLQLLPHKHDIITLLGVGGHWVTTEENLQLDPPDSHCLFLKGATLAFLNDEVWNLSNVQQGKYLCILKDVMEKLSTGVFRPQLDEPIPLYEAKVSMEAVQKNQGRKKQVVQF

In assay [5] the target is HS3ST1-heparan sulfate (glucosamine) 3-O-sulfotransferase 1 (HS3ST1) (human, UniProt O14792 21-307, limits assumed).
For assay [6], the target named is T4, CDK5RAP3-CDK5 regulatory subunit-associated protein 3 (human, UniProt Q96JB5 1-506, limits assumed).
T4 sequence (looked up): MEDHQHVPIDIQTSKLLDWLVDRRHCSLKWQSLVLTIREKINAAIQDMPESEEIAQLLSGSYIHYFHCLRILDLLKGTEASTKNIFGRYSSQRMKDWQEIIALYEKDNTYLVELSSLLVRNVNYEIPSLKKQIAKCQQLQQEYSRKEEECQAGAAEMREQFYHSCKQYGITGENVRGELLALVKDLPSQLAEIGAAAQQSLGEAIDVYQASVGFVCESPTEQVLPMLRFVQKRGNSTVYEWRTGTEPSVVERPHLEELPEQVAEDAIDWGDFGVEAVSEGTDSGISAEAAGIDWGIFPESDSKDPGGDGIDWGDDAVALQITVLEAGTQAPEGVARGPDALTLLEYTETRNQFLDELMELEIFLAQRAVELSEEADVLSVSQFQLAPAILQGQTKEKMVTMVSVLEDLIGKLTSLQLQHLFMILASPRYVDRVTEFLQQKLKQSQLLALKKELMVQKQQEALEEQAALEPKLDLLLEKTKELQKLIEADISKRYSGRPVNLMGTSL

The target of assay [7] is T5, PTCD2-pentatricopeptide repeat domain 2 (PTCD2) (human, UniProt Q8WV60 1-388, limits assumed).
T5 sequence (looked up): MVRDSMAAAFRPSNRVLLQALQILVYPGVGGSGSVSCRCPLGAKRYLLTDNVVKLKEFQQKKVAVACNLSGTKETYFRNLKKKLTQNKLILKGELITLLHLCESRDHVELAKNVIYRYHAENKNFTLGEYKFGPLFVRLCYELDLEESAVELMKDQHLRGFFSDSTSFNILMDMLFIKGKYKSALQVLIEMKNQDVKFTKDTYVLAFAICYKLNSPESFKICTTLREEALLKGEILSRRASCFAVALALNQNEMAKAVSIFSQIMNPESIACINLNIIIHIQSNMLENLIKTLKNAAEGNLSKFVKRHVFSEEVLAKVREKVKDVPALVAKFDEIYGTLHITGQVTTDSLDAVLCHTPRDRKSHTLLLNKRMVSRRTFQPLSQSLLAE

Assay [8] has as its target T6, MAGEH1-melanoma antigen family H, 1 (MAGEH1) (human, UniProt Q9H213 1-219).
T6 sequence (looked up): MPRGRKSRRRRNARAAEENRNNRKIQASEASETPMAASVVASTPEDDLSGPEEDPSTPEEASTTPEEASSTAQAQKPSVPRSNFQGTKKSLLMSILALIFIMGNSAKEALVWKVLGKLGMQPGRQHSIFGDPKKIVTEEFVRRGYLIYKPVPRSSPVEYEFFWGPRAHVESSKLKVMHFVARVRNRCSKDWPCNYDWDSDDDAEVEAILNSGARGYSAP

In assay [9] the target is T7, TMED5-transmembrane emp24 protein transport domain containing 5 (TMED5) (human, UniProt Q9Y3A6 28-229, limits assumed).
T7 sequence (looked up): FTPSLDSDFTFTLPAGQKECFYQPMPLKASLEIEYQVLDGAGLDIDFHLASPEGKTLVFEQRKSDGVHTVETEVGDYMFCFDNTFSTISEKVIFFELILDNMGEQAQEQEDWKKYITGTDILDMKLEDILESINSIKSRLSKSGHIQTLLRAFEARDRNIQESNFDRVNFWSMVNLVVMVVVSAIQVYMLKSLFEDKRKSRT

Sequence of HS3ST1-heparan sulfate (glucosamine) 3-O-sulfotransferase 1 (HS3ST1) (O14792 21-307 limits assumed): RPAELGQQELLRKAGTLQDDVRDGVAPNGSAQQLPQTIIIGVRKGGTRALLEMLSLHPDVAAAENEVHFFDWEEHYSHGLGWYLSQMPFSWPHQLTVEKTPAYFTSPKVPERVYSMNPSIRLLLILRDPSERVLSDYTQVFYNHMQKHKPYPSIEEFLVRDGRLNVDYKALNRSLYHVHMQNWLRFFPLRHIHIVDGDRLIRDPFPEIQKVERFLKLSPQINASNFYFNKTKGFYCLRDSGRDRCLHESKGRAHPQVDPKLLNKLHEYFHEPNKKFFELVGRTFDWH
Sequence of DGKA-diacylglycerol kinase, alpha 80 kDa (DGKA) (P23743 whole entry): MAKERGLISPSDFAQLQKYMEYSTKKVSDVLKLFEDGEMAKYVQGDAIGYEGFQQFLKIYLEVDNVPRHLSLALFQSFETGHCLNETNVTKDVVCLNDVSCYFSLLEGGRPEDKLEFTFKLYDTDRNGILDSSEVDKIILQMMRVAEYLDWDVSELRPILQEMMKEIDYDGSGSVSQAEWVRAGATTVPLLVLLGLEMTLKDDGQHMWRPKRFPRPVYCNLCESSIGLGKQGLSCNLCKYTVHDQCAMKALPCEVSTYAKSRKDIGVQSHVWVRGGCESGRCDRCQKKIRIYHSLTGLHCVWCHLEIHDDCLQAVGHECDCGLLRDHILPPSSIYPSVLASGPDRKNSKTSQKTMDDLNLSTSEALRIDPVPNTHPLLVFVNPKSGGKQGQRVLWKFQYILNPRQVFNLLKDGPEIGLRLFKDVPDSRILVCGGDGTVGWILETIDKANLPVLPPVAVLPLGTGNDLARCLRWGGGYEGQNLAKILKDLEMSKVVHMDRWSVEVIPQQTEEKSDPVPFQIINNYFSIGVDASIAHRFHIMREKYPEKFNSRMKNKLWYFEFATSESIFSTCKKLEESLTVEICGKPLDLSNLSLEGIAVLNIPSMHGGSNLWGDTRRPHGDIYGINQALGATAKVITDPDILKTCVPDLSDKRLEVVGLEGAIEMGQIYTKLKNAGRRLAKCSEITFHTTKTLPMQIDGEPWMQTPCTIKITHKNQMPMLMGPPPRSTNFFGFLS

B1: 3× Flag-3×MBT (designed binder)
chain: EEWSSSQPATGEKKECWSWESYLEEQKAITAPVSLFQDSQAVTHNKNGFKLGMKLEGIDPQHPSMYFILTVAEVCGYRLRLHFDGYSECHDFWVNANSPDIHPAGWFEKTGHKLQPPKGYKEEEFSWSQYLRSTRAQAAPKHLFVSQSHSPPPLGFQVGMKLEAVDRMNPSLVCVASVTDVVDSRFLVHFDNWDDTYDYWCDPSSPYIHPVGWCQKQGKPLTPPQDYPDPDNFCWEKYLEETGASAVPTWAFKVRPPHSFLVNMKLEAVDRRNPALIRVASVEDVEDHRIKIHFDGWSHGYDFWIDADHPDIHPAGWCSKTGHPLQPPLGPREPSSASPGG
notes: also called Flag-tagged 3×MBT; 3xFlag-3xMBT; not shown: made by PreScission cleavage of GST-3× Flag-3×MBT
Turning to B1, the “GST Average SNR” value in assay [1] was 1.16; in [2], -0.483; in assay [3], 1.23; in assay [4], -1.42; in assay [5], 0.092; in assay [6], -0.34. Also, the “GST Average SNR” value in assay [7] was 0.679; in assay [8] it was 1.11; in assay [9], -0.425.
